According to patent US5914109:

Key:
[1] = molecular target: gp120 of HTLV-IIIB (HIV-1 isolate IIIB)
[2] = molecular target: gp120 of HIV-1 isolate RF (HIV-1 isolate RF) (UniProt P04579)
[3] = molecular target: gp120 of HIV-1 isolate WMJ-2 (HIV-1 isolate WMJ-2)
[4] = molecular target: gp120 of HIVMN (HIV-1 strain MN) (UniProt P05877)
[5] = molecular target: gp120 of HIV-1 isolate SF-2 (virus) (HIV-1 isolate SF-2) (UniProt P03378)
[6] = molecular target: gp120 of HIV-1 isolate DU 7887-7 (HIV-1 isolate DU 7887-7)
[7] = molecular target: gp120 of HTLV-IIIB (HIV-1 isolate IIIB); remark: listed apart in the source
[8] = molecular target: gp120 of HIV-1 isolate AL-1 (HIV-1 isolate AL-1)
[9] = molecular target: heptapeptide HIGPGRA (pin 10) (HIV-1 strain MN); test: pin ELISA, heptapeptide on pin, mAb at 10 µg/ml
[10] = molecular target: heptapeptide RAFYTTK (pin 15) (HIV-1 strain MN); test: pin ELISA, heptapeptide on pin, mAb at 10 µg/ml
[11] = molecular target: heptapeptide GRAFYTT (pin 14) (HIV-1 strain MN); test: pin ELISA, heptapeptide on pin, mAb at 10 µg/ml
[12] = molecular target: heptapeptide IGPGRAF (pin 11) (HIV-1 strain MN); test: pin ELISA, heptapeptide on pin, mAb at 10 µg/ml
[13] = molecular target: heptapeptide GPGRAFY (pin 12) (HIV-1 strain MN); test: pin ELISA, heptapeptide on pin, mAb at 10 µg/ml
[14] = molecular target: heptapeptide PGRAFYT (pin 13) (HIV-1 strain MN); test: pin ELISA, heptapeptide on pin, mAb at 10 µg/ml
[15] = molecular target: V3-WM52 peptide (HIV-1 isolate WM52); test: ELISA on V3 peptide coated plates, mAb at 10 µg/ml
[16] = molecular target: 22-mer V3 peptide of HXB2 (HIV-1 HXB2 (IIIB)); test: ELISA on V3 peptide coated plates, mAb at 10 µg/ml
[17] = molecular target: V3-CDC4 peptide (HIV-1 isolate CDC4); test: ELISA on V3 peptide coated plates, mAb at 10 µg/ml
[18] = molecular target: 23-mer peptide of the gp120 V3 loop of the MN strain of HIV-1 (HIV-1 strain MN); test: ELISA on V3 peptide coated plates, mAb at 10 µg/ml
[19] = molecular target: V3-RF peptide (HIV-1 isolate RF); test: ELISA on V3 peptide coated plates, mAb at 10 µg/ml
[20] = molecular target: 20-mer V3 peptide of HIVSF2 (HIV-1 isolate SF-2); test: ELISA on V3 peptide coated plates, mAb at 10 µg/ml
[21] = molecular target: V3-SC peptide (HIV-1 isolate SC); test: ELISA on V3 peptide coated plates, mAb at 10 µg/ml
[22] = molecular target: V3-NY5 peptide (HIV-1 isolate NY5); test: ELISA on V3 peptide coated plates, mAb at 10 µg/ml
[23] = molecular target: 22-mer V3 peptide of HXB2 (HIV-1 HXB2 (IIIB)); test: competition ELISA in solution at equilibrium (Friguet method)
[24] = molecular target: 20-mer V3 peptide of HIVSF2 (HIV-1 isolate SF-2); test: as above

human mAb 694-D (antibody)
50% neutralization, CEM-SS syncytium-forming assay, IgG concentration [1]: 0.04 µg/mL
90% neutralization, CEM-SS syncytium-forming assay, IgG concentration [1]: 1.4 µg/mL
neutralization endpoint, MT-4 cell killing assay [2]: > 25 µg/mL
neutralization endpoint, MT-4 cell killing assay [3]: 6.25 µg/mL
neutralization endpoint, MT-4 cell killing assay [4]: 3.13 µg/mL
neutralization endpoint, MT-4 cell killing assay [5]: 0.04 µg/mL
neutralization endpoint, MT-4 cell killing assay [6]: > 25 µg/mL
neutralization endpoint, MT-4 cell killing assay [7]: 0.78 µg/mL
neutralization endpoint, MT-4 cell killing assay [8]: 0.04 µg/mL
ELISA Reactivity (absorbance at 410 nm) (absorbance at 410 nm) [9]: 0.14
ELISA Reactivity (absorbance at 410 nm) (absorbance at 410 nm) [10]: 0.089
ELISA Reactivity (absorbance at 410 nm) (absorbance at 410 nm) [11]: 1.23
ELISA Reactivity (absorbance at 410 nm) (absorbance at 410 nm) [12]: 1.37
ELISA Reactivity (absorbance at 410 nm) (absorbance at 410 nm) [13]: > 2
ELISA Reactivity (absorbance at 410 nm) (absorbance at 410 nm) [14]: 1.4
minimum antigen concentration giving positive results (µg/ml of V3 peptide used to coat) [15]: 0.6
minimum antigen concentration giving positive results (µg/ml of V3 peptide used to coat) [16]: 0.1
minimum antigen concentration giving positive results (µg/ml of V3 peptide used to coat) [17]: 1
minimum antigen concentration giving positive results (µg/ml of V3 peptide used to coat) [18]: 0.01
minimum antigen concentration giving positive results (µg/ml of V3 peptide used to coat) [19]: 1
minimum antigen concentration giving positive results (µg/ml of V3 peptide used to coat) [20]: 0.01
minimum antigen concentration giving positive results (µg/ml of V3 peptide used to coat) [21]: 0.02
minimum antigen concentration giving positive results (µg/ml of V3 peptide used to coat) [22]: 1
Kd [23]: 12 µM
Kd [24]: 1800 nM
